Consider one molecule from patent publication US20020147326A1, “Hexameric fusion proteins and uses therefor” (SmithKline Beecham Corporation, priority 1996, published 2002).

Experiment [1] addresses T1, CD28-Ig (Homo sapiens, UniProt P10747).
T1 construct: native leader and extracellular domain peptide of CD28 and CD80 were grafted onto a human IgG1 heavy chain Fc region; human IgG1 Fc (hinge/CH2/CH3); made in house; host or cells: CHO cells
Kind of experiment: Isothermal titration calorimetry, binding to CD28-Ig in solution. The source says: The solution binding properties of the hexameric and standard Ig fusion proteins of CD80 and CD86 were compared using isothermal titration calorimetry, essentially as described previously for other proteins [K. Johanson et. al., J. Biol. Chem, 270: 9459-9471 (1995), and references therein].
This lower affinity for CD28 than for CTLA4 is in agreement with other reports [P. S. Linsley et. al., Immunity 1: 793-801 (1994)].

The target in experiment [2] is T2, human CD28 on PCD28.1.s2.1 cells (Homo sapiens, UniProt P10747).
T2 construct: expressed in transfected cells; host or cells: PCD28.1.s2.1 (PE30.2 murine T-cell hybridoma transfected with pHbactCd28neo)
Kind of experiment: Flow cytometry binding to cells expressing cell-surface CD28. The class given is cell-based. The conditions noted are these: on ice. How it is done: Non-adherent CD28 expressing cells (PCD28.1.s2.1) were used for this assay format. PCD28.1.S2.1 cells were created by transfection of PE30.2 cells [D. Emilie et al., Eur. J. Immunol., 19:1619-1624 (1989)] with a vector for expression of human CD28 [D. Couez et al., Molecular Immunology, 31:47-57 (1994)]. All incubations were carried out on ice. Unlabelled CD80- and CD86-Igαtp or CD80 and CD86-Ig were incubated with the cells in binding buffer consisting of PBS w/o Ca+2/Mg+2, 0.2% bovine serum albumin and 0.1 % sodium azide. After washing twice in binding buffer, bound fusion proteins were detected with a 1:2000 dilution of a goat anti-human polyclonal antibody labeled with FITC (Flourescein isothiocyanate, Southern Biotech). Following two additional washes in binding buffer, the cells were resuspended in binding buffer and analyzed on a FACSort analyzer (Becton-Dickinson) using a 488 nm laser.

For experiment [3], the system named is murine T-cell hybridoma cell lines expressing human CD28 (PCD28.1.s2.1, DCL27CD28wt.s2). Kind of experiment: IL-2 production by CD28 T-cell hybridomas (CTLL-2 bioassay). The format is cell-based. The source says: The CD80- and CD86-Igαtp proteins were compared to the corresponding CD80 and CD86-Ig proteins to determine their ability to stimulate cells expressing human CD28 using two murine T-cell hybridoma cell lines expressing human CD28, PCD28.1.s2.1 and DCL27CD28wt.s2. The PCD28.1.s2.1 cell line was described in Example 1, part 3. The DCL27CD28wt.s2 cell line was created by transfection of the DC27 cell line [F. Pages et al., Nature, 369:327-329 (1994); F. Pages et al., J. Biol. Chem., 271(16):9403-9409 (1996)] with the same CD28 expression vector used for the PCD28.1.s2.1 cells [D. Couez et al., Molecular Immunology, 31:47-57 (1994)]. These cell lines were examined for their ability to produce IL-2 in response to activation with CD80- and CD86-Ig in comparison with the corresponding Igαtp fusion proteins. 96-well plates were coated with or without a CD3 antibody together with the CD80 and CD86 fusion proteins. This was accomplished by first incubating the plates with a previously determined suboptimal concentration of hamster […] CD3 antibody (MAb 145-2C11, Boerhinger-Mannheim Biochemicals) for two hours at room temperature (RT) or with just buffer alone, washing the plates with PBS, adding goat anti-human Ig heavy chain (GAH-IgHc, Sigma Chemical Co.) for an additional two hours at RT, washing again and coating with different concentrations of the CD80 or CD86 fusion protein for 16-18 hours at 4° C., washing again, and finally blocking for 30 min. with 0.2% BSA-PBS. […] T cells were incubated in the wells for 24 hours at 37° C., and supernatants were collected and evaluated for IL-2 levels in a standard CTLL-2 bioassay [S. M. Gillis et al., J. Immunol., 120:2027 (1978)]. […] OD570 readings were converted into ng/ml of IL-2 based on a standard curve generated by treating cells with known concentrations of IL-2.
(§1) IL-2 promoter activity and IL-2 levels were measured similarly to that described in parts A and B above, except that proliferation of the reader CTLL-2 cells was measured by ^3H-thymidine incorporation.

Experiment [4] concerns PCD28.1.S2.1 cells (human CD28, lacZ fused to the IL-2 promoter). As to the kind of experiment: FDG assay for IL-2 promoter activity (lacZ reporter). The class given is cell-based, murine. The conditions noted are these: added directly to PC28.1.s2.1 cells in solution (FIG. 20A). How it is done: A second assay for agonist activity measured induction of IL-2 promoter activity, rather than production of IL-2 protein. The PCD28.1.S2.1 cells described above also contain lacZ fused to the IL-2 promoter. Thus, the PCD28.1.S2.1 cell line provides a convenient system for measuring IL-2 promoter activity upon CD28-mediated T cell simulation. T cells were activated as described above for the CTLL-2 assay, spun down, resuspended in 50 μl of media+50 μl of PBS, lysed with 10 μl of 20% Triton X-100, and supplemented with 25 μl of 10 mM FDG (Molecular Probes), a fluorogenic substrate for b-galactosidase. Hydrolysis of FDG first yields fluorescein monogalactoside (FMG) and then the highly fluorescent product fluorescein. Cell lysates were incubated with FDG for 60 min., and the levels of fluorescence were measured by Fluoroscan (MTX Lab Systems, Inc).
as §1

B1: CD86-Ig: binding protein/Fc construct for CD86 with human IgG1 Fc (protein)
chain: APLKIQAYFNETADLPCQFANSQNQSLSELVVFWQDQENLVLNEVYLGKEKFDSVHSKYMGRTSFDSDSWTLRLHNLQIKDKGLYQCIIHHKKPTGMIRIHQMNSELSVLANFSQPEIVPISNITENVYINLTCSSIHGYPEPKKMSVLLRTKNSTIEYDGIMQKSQDNVTELYDVSISLSVSFPDVTSNMTIFCILETDKTRLLSSPFSIELEDPQPPPDHEPKSADKTHTCPPCP
modifications: left off: a dimerising Fc or GST
For B1, in experiment [1], the “interaction with CD28-Ig in solution by calorimetry” value is “not detected”. Further, the “binding to CD28 positive cells” value in experiment [2] is recorded as “no binding”. In addition, the IL-2 production entry is listed as “no stimulation” in experiment [3] (added directly to PC28.1.s2.1 cells in solution, CTLL-2 3H-thymidine incorporation (FIG. 20B)) and “no activity” in experiment [3] (soluble protein, absence of CD3 crosslinking). Moreover, in experiment [3] (cross-linked with GAH antibody, no CD3 antibody), the IL-2 response entry was “did not give a response”. In addition, the IL-2 promoter activity result in experiment [4] is listed as “no stimulation”.
